B1: HGF NK1 (ligand)
chain: QRKRRNTIHEFKKSAKTTLIKIDPALKIKTKKVNTADQCANRCTRNKGLPFTCKAFVFDKARKQCLWFPFNSMSSGVKKEFGHEFDLYENKDYIRNCIIGKGRSYKGTVSITKSGIKCQPWSSMIPHEHSFLPSSYRGKDLQENYCRNPRGEEGGPWCFTSNPEVRYEVCDIPQEQKLISEEDLNHHHHHHH
notes: range 32-205; also called HGF-NK1 MYC his; monomeric NK1
B2: HGF-α (ligand)
chain: QRKRRNTIHEFKKSAKTTLIKIDPALKIKTKKVNTADQCANRCTRNKGLPFTCKAFVFDKARKQCLWFPFNSMSSGVKKEFGHEFDLYENKDYIRNCIIGKGRSYKGTVSITKSGIKCQPWSSMIPHEHSFLPSSYRGKDLQENYCRNPRGEEGGPWCFTSNPEVRYEVCDIPQCSEVECMTCNGESYRGLMDHTESGKICQRWDHQTPHRHKFLPERYPDKGFDDNYCRNPDGQPRPWCYTLDPHTRWEYCAIKTCADNTMNDTDVPLETTECIQGQGEGYRGTVNTIWNGIPCQRWDSQYPHEHDMTPENFKCKDLRENYCRNPDGSESPWCFTTDPNIRVGYCSQIPNCDMSHGQDCYRGNGKNYMGNLSQTRSGLTCSMWDKNMEDLHRHIFWEPDASKLNENYCRNPDDDAHGPWCYTGNPLIPWDYCPISRCEGDTEQKLISEEDLNHHHHHHH
notes: range 32-473; also called HGF α-chain; HGF-α MYC his

What was measured:
Decoy Met = molecular target: T1, Decoy Met (UniProt P08581 25-932); test: ELISA, Decoy Met in solid phase, MYC-tagged ligand in liquid phase, anti-MYC detection
T1 construct: range 25-932; Soluble FLAG- and His-tagged receptor, purified from conditioned medium of transduced cells; also called decoy met FLAG.his; DM
Procedure: (§1) Factor purification was performed by immobilized-metal affinity chromatography as previously described in Michieli P. et al. (2002) Nat Biotechnol. 20(5), 488-495. Conversion of pro-HGF into active HGF was performed by incubating purified pro-HGF (maximal concentration 100 ng/μl) with 2-10% FBS (Sigma, St. Louis, Mo.) at 37° C. for 24 hours. Factor conversion was analyzed by Western blotting using anti-HGF antibodies (R&D Systems, Minneapolis, Minn.). Uncleavable HGF subjected to the same incubation with FBS was used as pro-HGF in all assays that compared active HGF with unprocessed HGF. Binding of engineered ligands to soluble receptors was measured by ELISA using FLAG-tagged soluble receptors in solid phase and MYC-tagged engineered ligands in liquid phase. […] Binding data were analyzed and fit using Prism software (Graph Pad Software, San Diego, Calif.).
(§2) To determine the affinity of each Met module for pro-HGF, HGF-α, HGF NK1 and HGF-β and to compare it with that for active HGF, engineered receptors were immobilized in solid phase and exposed to increasing concentrations of MYC-tagged ligands. […] Non-specific binding was determined using the kringle-containing protein angiostatin (AS) also tagged with a MYC epitope—in liquid phase. […] Binding of HGF-β to decoy Met (or to any other Met domain) was too low to be detected in this kind of assay. […]

IPT = molecular target: T2, IPT (UniProt P08581 563-932); test: ELISA, IPT in solid phase, MYC-tagged ligand in liquid phase, anti-MYC detection
T2 construct: range 563-932; also called IPT FLAG.his; soluble IPT
Procedure: as §1, §2

Sema-PSI = molecular target: T3, Sema-PSI (UniProt P08581 25-562); test: ELISA, receptor in solid phase, MYC-tagged ligand in liquid phase, anti-MYC detection
T3 construct: range 25-562; also called Sema-PSI FLAG.his; SP
Procedure: as §1, with “All engineered receptors and factors were collected from the conditioned medium of lentiviral vector-transduced […] human melanoma cells in the absence of serum. Factor purification” for “Factor purification”, “Minneapolis, Minn.). […] Binding of” for “Minneapolis, Minn.). Uncleavable HGF subjected to the same incubation with FBS was used as pro-HGF in all assays that compared active HGF with unprocessed HGF. Binding of”
as §2

Binder | fold reduced affinity compared to active HGF (Decoy Met) | fold less tightly than active HGF (IPT) | binding result (Sema-PSI)
B1 | 10 fold | 10 fold | no binding
B2 | 4 fold | – | no binding
